Assay results reported in the supplement of paper PMC12764529.
± gives the half width of the 95% confidence interval.

Key:
[1] = folding stability dG unfold from chymotrypsin proteolysis; higher = more stable
Experimental: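 Folding stability of de novo designed mini-proteins (<80 aa, no Cys; designed by TrROS, TrMRF, ProteinMPNN and the joint model) was measured by cDNA display proteolysis with trypsin and chymotrypsin. Each protease was used at 11 concentrations in a threefold dilution series plus a no-protease condition. K50 was inferred by Bayesian fitting of sequencing counts, and dG unfold was derived against a sequence-predicted unfolded-state K50 (Tsuboyama et al. method). Sequences shown include variable-length N-terminal GS-type padding (SAGGSAGG...) inside a display construct carrying a PA tag. Rows were kept only if the AF2 dimer inter-PAE was >15, to exclude likely homo-oligomers.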

[2] = folding stability dG unfold (combined trypsin and chymotrypsin); higher = more stable
How it was run: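 Sequencing followed digestion of designed mini-proteins with trypsin and chymotrypsin, each at 11 concentrations in threefold dilutions together with a no-protease condition. The mini-proteins were under 80 residues, had no cysteine, sat in a PA-tagged cDNA display construct, and were kept only if AlphaFold2 dimer inter-PAE was above 15. From the counts, Bayesian fitting gave K50, and unfolding free energy was derived against a sequence-predicted unfolded-state K50 and a shared folded-state K50, per protease or combined.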

**Q.** Which “folding stability dG unfold” value [1] does the source give for “SAGGSAGGSAGGLPINARPPNIAEVIRALRESGRYRVVEIRPFGDGAVIRVEKDGVPLESAGGSAGGSAGGS [r10_695_TrMRF]” here?
**A.** 0.769 ± 0.19 kcal/mol

**Q.** What about the “folding stability dG unfold” value [2] of the same sequence?
**A.** 0.0741 ± 0.34 kcal/mol

**Q.** Which results are given for “SAGSSRIIFYPENNTYLIETPEGSFTLPETVTTTTPAPTGENPDRTVPRPTTTYVATELSLEEAEKLLSSAG [r5_234_JUSTAS]”?
**A.** folding stability dG unfold [1]: 0.367 ± 0.051 kcal/mol; folding stability dG unfold [2]: -0.149 ± 0.076 kcal/mol

**Q.** With “SAGGSAGGSAMRAVVVAFPPDGPPRVFPTDDLAPDERRVTFDPETGELALIEVLPEDGDPASAGGSAGGSAG [r3_356_TrMRF]” as the sequence, how does the “folding stability dG unfold” value [1] read?
**A.** 0.0788 ± 0.23 kcal/mol

**Q.** What about the “folding stability dG unfold” value [2] of the same sequence?
**A.** < -1 kcal/mol

**Q.** Which “folding stability dG unfold” value [1] does the source give for “SAGGMKIKIEITEIKKEGDTVYIKVKITITLPNGKVIKIEMTLRYNKETGKWEIVKIEKIEIFPLPESAGGS [r16_729_TrROS_Hall]” here?
**A.** 5.3 ± 0.31 kcal/mol

**Q.** What about the “folding stability dG unfold” value [2] of the same sequence?
**A.** 5.46 ± 0.49 kcal/mol

**Q.** With “SAGGSAGGSAGGVYKVEIEIGDAPRTLVVENAAPEEIRAFLEHPEVRRARVEPLSPEELGSAGGSAGGSAGG [r7_502_TrMRF]” as the sequence, how does the “folding stability dG unfold” value [1] read?
**A.** 0.216 ± 0.12 kcal/mol

**Q.** And the “folding stability dG unfold” value [2]?
**A.** -0.152 ± 0.11 kcal/mol

**Q.** For “SAGGSAGGSAGGPIRIKNIENVNPDDGMFTVDVEFPDGKNHTYMIPPDQLEEPGDEIEIPSAGGSAGGSAGG [r7_117_TrROS]”, which “folding stability dG unfold” value [1] is on record?
**A.** -0.696 ± 0.54 kcal/mol

**Q.** What about the “folding stability dG unfold” value [2] of the same sequence?
**A.** < -1 kcal/mol

**Q.** With “SAGGSAGGSAGMLNTTVTVSIPTPEGKVETITIPPGVPLEEAKAKVAEPRPGAEITEIVRVSAGGSAGGSAG [r3_60_JUSTAS]” as the sequence, how does the “folding stability dG unfold” value [1] read?
**A.** 0.764 ± 0.044 kcal/mol

**Q.** And the “folding stability dG unfold” value [2]?
**A.** 0.165 ± 0.21 kcal/mol

**Q.** With “SAGGSAGGSAPPIPIQIKIERPDPDGEKRERKIPVWIPPNNIDEIKDEAEEEGWRVKEVTISAGGSAGGSAG [r3_453_TrROS]” as the sequence, how does the “folding stability dG unfold” value [1] read?
**A.** 0.29 ± 0.05 kcal/mol

**Q.** What about the “folding stability dG unfold” value [2] of the same sequence?
**A.** -0.477 ± 0.18 kcal/mol

**Q.** Which “folding stability dG unfold” value [1] does the source give for “SAMKTYTFEFTLTVPPDTPLEEVKAKVKEKVKAELKKLGIPLPETAKIEIKKVKEEGNKIYFKVTVTNKSAG [r14_735_JUSTAS]” here?
**A.** 4.06 ± 0.057 kcal/mol

**Q.** And the “folding stability dG unfold” value [2]?
**A.** 4.16 ± 0.14 kcal/mol

**Q.** For “SAGGSAGGSGMVTVKRTVPPGNVEEAVNALTPPNLTITDVKVTELPDSVEVTVTVEDPFPGLVSAGGSAGGS [r12_445_JUSTAS]”, which “folding stability dG unfold” value [1] is on record?
**A.** 0.587 ± 0.034 kcal/mol

**Q.** What about the “folding stability dG unfold” value [2] of the same sequence?
**A.** 0.0193 ± 0.12 kcal/mol

**Q.** With “SAGGSAGGSAGGGPNIRTVTETTVEPTPDSVVTTRPVYYVDPSGTVLGSETTTTVDPNTTSAGGSAGGSAGG [r7_812_JUSTAS]” as the sequence, how does the “folding stability dG unfold” value [1] read?
**A.** 0.179 ± 0.034 kcal/mol

**Q.** What about the “folding stability dG unfold” value [2] of the same sequence?
**A.** -0.26 ± 0.13 kcal/mol

**Q.** Which “folding stability dG unfold” value [1] does the source give for “SAGGSAGGSAGGSAVEVDPNGGVTRTRYPGGAVRLETVSPTPDGSLATRTEEVELPGLASAGGSAGGSAGGS [r4_248_JUSTAS]” here?
**A.** 0.871 ± 0.013 kcal/mol

**Q.** And the “folding stability dG unfold” value [2]?
**A.** 0.403 ± 0.051 kcal/mol

**Q.** For “SAGGSAGGSAGGMPAEEVQNIIEEQGFDGPNQTVTIDVPDGRRVKIEMPPNGMKLEVEDSAGGSAGGSAGGS [r10_604_TrROS]”, which “folding stability dG unfold” value [1] is on record?
**A.** 0.0665 ± 0.081 kcal/mol

**Q.** What about the “folding stability dG unfold” value [2] of the same sequence?
**A.** -0.538 ± 0.31 kcal/mol

**Q.** Which “folding stability dG unfold” value [1] does the source give for “SAGGSAGGSAGSSSFIRKGKDGSRITATPSPSYITISTFPLKGGGIVPSTKTTTLPPSLLSAGGSAGGSAGG [r11_88_JUSTAS]” here?
**A.** -0.915 ± 0.45 kcal/mol

**Q.** What about the “folding stability dG unfold” value [2] of the same sequence?
**A.** < -1 kcal/mol

**Q.** For “SAGGSAGGSAGMVVETEVLETTPPGRTVRTRTTTREKTPDNAPVTTESESVTEVPSPPLESAGGSAGGSAGG [r11_689_JUSTAS]”, which “folding stability dG unfold” value [1] is on record?
**A.** 0.615 ± 0.026 kcal/mol

**Q.** And the “folding stability dG unfold” value [2]?
**A.** 0.273 ± 0.081 kcal/mol

**Q.** What does the source list for “SAGGSAGGSAGGPIKIKHNDGVEITIPADNVRSVDTNPGPGYIKITFPGNGQEFQIPIDSAGGSAGGSAGGS [r10_200_TrROS]”?
**A.** folding stability dG unfold [1]: 0.00978 ± 0.031 kcal/mol; folding stability dG unfold [2]: -0.306 ± 0.12 kcal/mol

**Q.** For “SAGGSAGGMKITITFPDGTKKEIEVESEEELLEAIKKLAEELGLEKEVTVTVEYNGKTYTITLKSAGGSAGG [r6_531_TrROS_Hall]”, which “folding stability dG unfold” value [1] is on record?
**A.** 5.13 ± 0.25 kcal/mol

**Q.** What about the “folding stability dG unfold” value [2] of the same sequence?
**A.** 5.06 ± 0.32 kcal/mol

**Q.** What does the source list for “SAGGSAGGSAGGAMPNDVKVTTTTFTGTETLTLTDASGTPTSSTKTVTTTRTSVFPDTTSAGGSAGGSAGGS [r10_1212_JUSTAS]”?
**A.** folding stability dG unfold [1]: 0.733 ± 0.1 kcal/mol; folding stability dG unfold [2]: 0.311 ± 0.13 kcal/mol

**Q.** What does the source list for “SAGGEPRLGRVLLDIDIAVDPERAEREEDREEALERALEIAERAEARLRELDPDVPVVVNIRLLDVGSAGGS [r8_183_TrMRF]”?
**A.** folding stability dG unfold [1]: 0.576 ± 0.031 kcal/mol; folding stability dG unfold [2]: 0.31 ± 0.17 kcal/mol

**Q.** Which results are given for “SAGGSAGGSAGGMPPRLVEIPIFVPPTDPARAEALAEELREELGAEEVVVRIVLAPPGLGSAGGSAGGSAGG [r7_632_JUSTAS]”?
**A.** folding stability dG unfold [1]: 0.982 ± 0.013 kcal/mol; folding stability dG unfold [2]: 0.414 ± 0.072 kcal/mol

**Q.** Which “folding stability dG unfold” value [1] does the source give for “SAGGSAGGMIRTYELPETGEVRVLIRTPNPEEAEALAAEVRAELAAAGLDVPVEISPGPASALDSAGGSAGG [r6_641_JUSTAS]” here?
**A.** 0.703 ± 0.2 kcal/mol

**Q.** And the “folding stability dG unfold” value [2]?
**A.** 0.283 ± 0.18 kcal/mol

**Q.** What does the source list for “SAGGNIKITDIEMEPMNMPRKNEDGKEKPRPMWQFKVRIRDDGKPIAEVPFTSMDDMRNAVKKLLKKSAGGS [r8_21_TrROS]”?
**A.** folding stability dG unfold [1]: -0.0964 ± 0.26 kcal/mol; folding stability dG unfold [2]: -0.182 ± 0.39 kcal/mol

**Q.** Which results are given for “SAGGSAGGSAKKELKIGNVEHNPGDGRYWANIQIKDGKPIVPVEFDDPQDPERFVKKAIKQLSAGGSAGGSA [r18_479_TrROS]”?
**A.** folding stability dG unfold [1]: -0.706 ± 0.41 kcal/mol; folding stability dG unfold [2]: < -1 kcal/mol

**Q.** For “SAGGSAGGSVIPFPGNSRIYVTEVREDGVKIKFPDIGTEITVPANVPINLVGNPTIGPDGTPYSAGGSAGGS [r20_105_TrMRF]”, which “folding stability dG unfold” value [1] is on record?
**A.** -0.946 ± 0.53 kcal/mol

**Q.** And the “folding stability dG unfold” value [2]?
**A.** < -1 kcal/mol
